Source: patent publication US20210238260A1

Key:
[1] = target: FIXa A103N/N105S/I251S (human) (UniProt P00740); assay: cell-based or functional assay
[2] = target: FIXa A103N/N105S/K247N/N249S (human) (UniProt P00740); assay: cell-based or functional assay
[3] = target: FIXa A204M (human) (UniProt P00740); assay: cell-based or functional assay
[4] = target: FIXa D104N/K106S/N260S (human) (UniProt P00740); assay: cell-based or functional assay
[5] = target: FIXa D104N/K106S/Y155F/K247N/N249S (human) (UniProt P00740); assay: cell-based or functional assay
[6] = target: FIXa D104N/K106S/Y155F/N260S (human) (UniProt P00740); assay: cell-based or functional assay
[7] = target: FIXa D203M (human) (UniProt P00740); assay: cell-based or functional assay
[8] = target: FIXa D203Y (human) (UniProt P00740); assay: cell-based or functional assay
[9] = target: FIXa D85N/D104N/K106S/I251S (human) (UniProt P00740); assay: cell-based or functional assay
[10] = target: FIXa E239N (human) (UniProt P00740); assay: cell-based or functional assay
[11] = target: FIXa E410N (human) (UniProt P00740); assay: cell-based or functional assay
[12] = target: FIXa F314N/H315S (human) (UniProt P00740); assay: cell-based or functional assay
[13] = target: FIXa K400A/R403A (human) (UniProt P00740); assay: cell-based or functional assay
[14] = target: FIXa K400E/R403E (human) (UniProt P00740); assay: cell-based or functional assay
[15] = target: FIXa K413N (human) (UniProt P00740); assay: cell-based or functional assay
[16] = target: FIXa N260S (human) (UniProt P00740); assay: cell-based or functional assay
[17] = target: FIXa R312Y (human) (UniProt P00740); assay: cell-based or functional assay
[18] = target: FIXa R318A (human) (UniProt P00740); assay: cell-based or functional assay
[19] = target: FIXa R318E (human) (UniProt P00740); assay: cell-based or functional assay
[20] = target: FIXa R318N/A320S (human) (UniProt P00740); assay: cell-based or functional assay
[21] = target: FIXa R318Y (human) (UniProt P00740); assay: cell-based or functional assay
[22] = target: FIXa R403A (human) (UniProt P00740); assay: cell-based or functional assay
[23] = target: FIXa T241N/H243S (human) (UniProt P00740); assay: cell-based or functional assay
[24] = target: FIXa V202M (human) (UniProt P00740); assay: cell-based or functional assay
[25] = target: FIXa Y155F/K247N/N249S (human) (UniProt P00740); assay: cell-based or functional assay
[26] = target: FIXa Y155F/N260S (human) (UniProt P00740); assay: cell-based or functional assay
[27] = target: FIXa Y284N (human) (UniProt P00740); assay: cell-based or functional assay
[28] = target: plasma purified human antithrombin III (AT-III), in complex with unfractionated heparin (UFH) (human) (UniProt P01008); assay: K0.5: AT-III conc. (with UFH) for 50% inhibition of FIXa cleavage of Mesyl-D-CHG-Gly-Arg-AMC
[29] = target: Factor VIIIa (recombinant FVIII, Kogenate FS, activated with alpha-thrombin) (UniProt P00451); assay: apparent functional KD (KD-app): FXa generation by FIXa with FVIIIa titrated, PC/PS vesicles, saturating FX, fluorogenic Spectrafluor FXa
Chain of Factor VIIIa (recombinant FVIII, Kogenate FS, activated with alpha-thrombin) (P00451 other isoform, or with tags, fused parts or gaps limits assumed): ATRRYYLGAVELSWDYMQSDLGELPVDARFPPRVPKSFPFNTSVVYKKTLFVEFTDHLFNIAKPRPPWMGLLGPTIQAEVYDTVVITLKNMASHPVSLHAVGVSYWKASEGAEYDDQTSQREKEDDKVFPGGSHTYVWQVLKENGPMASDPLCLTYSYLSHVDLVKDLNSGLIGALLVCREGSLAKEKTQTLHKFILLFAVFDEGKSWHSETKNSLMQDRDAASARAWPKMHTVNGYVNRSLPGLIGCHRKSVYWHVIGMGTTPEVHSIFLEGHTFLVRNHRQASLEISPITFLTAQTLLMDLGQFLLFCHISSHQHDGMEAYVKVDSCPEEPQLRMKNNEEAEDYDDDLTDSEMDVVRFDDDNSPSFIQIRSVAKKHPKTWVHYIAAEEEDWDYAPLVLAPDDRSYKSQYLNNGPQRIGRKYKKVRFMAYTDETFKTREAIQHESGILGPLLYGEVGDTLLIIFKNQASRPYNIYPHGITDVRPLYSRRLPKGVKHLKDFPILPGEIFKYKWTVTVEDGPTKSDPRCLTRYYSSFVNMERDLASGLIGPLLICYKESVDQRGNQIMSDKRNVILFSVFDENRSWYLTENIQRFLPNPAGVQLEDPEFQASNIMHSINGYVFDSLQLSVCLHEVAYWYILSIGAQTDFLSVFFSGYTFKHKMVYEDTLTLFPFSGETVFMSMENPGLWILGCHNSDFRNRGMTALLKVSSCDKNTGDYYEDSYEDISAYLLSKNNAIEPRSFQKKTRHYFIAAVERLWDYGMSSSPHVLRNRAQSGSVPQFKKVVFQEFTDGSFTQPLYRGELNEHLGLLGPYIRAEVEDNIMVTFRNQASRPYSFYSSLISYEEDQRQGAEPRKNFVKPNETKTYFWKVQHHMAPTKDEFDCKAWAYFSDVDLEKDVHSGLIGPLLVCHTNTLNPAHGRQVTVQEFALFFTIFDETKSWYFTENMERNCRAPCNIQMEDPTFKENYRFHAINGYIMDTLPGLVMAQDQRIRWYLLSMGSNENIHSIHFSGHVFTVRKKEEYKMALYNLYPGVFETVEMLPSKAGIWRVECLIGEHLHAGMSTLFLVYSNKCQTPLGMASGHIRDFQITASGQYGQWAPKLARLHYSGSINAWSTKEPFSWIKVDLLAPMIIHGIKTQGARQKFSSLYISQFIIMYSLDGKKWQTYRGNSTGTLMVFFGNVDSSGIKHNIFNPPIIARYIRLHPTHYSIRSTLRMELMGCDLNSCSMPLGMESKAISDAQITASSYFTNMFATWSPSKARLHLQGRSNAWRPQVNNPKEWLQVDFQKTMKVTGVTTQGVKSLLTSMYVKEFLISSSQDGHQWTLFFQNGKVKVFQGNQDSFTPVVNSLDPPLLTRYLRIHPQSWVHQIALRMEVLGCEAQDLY

[30] = target: antithrombin III (plasma purified human AT-III, Molecular Innovations) (human) (UniProt P01008); assay: AT-III/UFH inhibition of FIXa cleavage of Mesyl-D-CHG-Gly-Arg-AMC; K0.5 = AT-III conc. for 50% inhibition (AT-III varied)

**Q.** Which results are given for “plasma purified human AT-III (antithrombin III), in complex with full-length unfractionated heparin (from UniProt P01008 33-464)”?
**A.** K0.5 (nM), inhibition of FIXa by AT-III/UFH [1]: 42 nM; K0.5 (nM), inhibition of FIXa by AT-III/UFH [2]: 53 nM; K0.5 (nM), inhibition of FIXa by AT-III/UFH [3]: 29 nM; K0.5 (nM), inhibition of FIXa by AT-III/UFH [4]: 228 nM; K0.5 (nM), inhibition of FIXa by AT-III/UFH [5]: 27 nM; K0.5 (nM), inhibition of FIXa by AT-III/UFH [6]: 292 nM; K0.5 (nM), inhibition of FIXa by AT-III/UFH [7]: 11 nM; K0.5 (nM), inhibition of FIXa by AT-III/UFH [8]: 16 nM; K0.5 (nM), inhibition of FIXa by AT-III/UFH [9]: 28 nM; K0.5 (nM), inhibition of FIXa by AT-III/UFH [10]: 132 nM; K0.5 (nM), inhibition of FIXa by AT-III/UFH [11]: 9 nM; K0.5 (nM), inhibition of FIXa by AT-III/UFH [12]: 104 nM; K0.5 (nM), inhibition of FIXa by AT-III/UFH [13]: > 999 nM; K0.5 (nM), inhibition of FIXa by AT-III/UFH [14]: > 999 nM; K0.5 (nM), inhibition of FIXa by AT-III/UFH [15]: 27 nM; K0.5 (nM), inhibition of FIXa by AT-III/UFH [16]: 312 nM; K0.5 (nM), inhibition of FIXa by AT-III/UFH [17]: 2500 nM; K0.5 (nM), inhibition of FIXa by AT-III/UFH [18]: 4140 nM; K0.5 (nM), inhibition of FIXa by AT-III/UFH [19]: > 10000 nM; K0.5 (nM), inhibition of FIXa by AT-III/UFH [20]: > 999 nM; K0.5 (nM), inhibition of FIXa by AT-III/UFH [21]: 1980 nM; K0.5 (nM), inhibition of FIXa by AT-III/UFH [22]: 190 nM; K0.5 (nM), inhibition of FIXa by AT-III/UFH [23]: 21 nM; K0.5 (nM), inhibition of FIXa by AT-III/UFH [24]: 14 nM; K0.5 (nM), inhibition of FIXa by AT-III/UFH [25]: 13 nM; K0.5 (nM), inhibition of FIXa by AT-III/UFH [26]: 77 nM; K0.5 (nM), inhibition of FIXa by AT-III/UFH [27]: 41 nM

**Q.** Which IC50 [28] does the source give for “Plasma Purified FIXa (from UniProt P00740 47-191; P00740 227-461) (enzyme)” here?
**A.** Its IC50 is 0.03 µM.

**Q.** What about the Kd [29] of the same substance?
**A.** The Kd was 0.102 µM.

**Q.** Which IC50 [30] does the source give for “Plasma Purified FIXa (Haematologic Technologies, Inc.) (from UniProt P00740 47-191; P00740 227-461) (enzyme)” here?
**A.** Its IC50 is 0.03 µM.
